Test results reported in patent publication US20250382344A1, “Soluble GLP1/GIP/NPY2 Receptor Triple Agonists” (Boehringer Ingelheim International GmH, priority 2024, published 2025).
*1 amine or outer side, *2 acyl side, *3 side chain or, on linkers, in order; H or OH if unused. Where no end group is shown, it is not given here. Side-chain parts run from the residue outwards. [ ]: non-standard residue; d: D form. The star is where a group is joined. C20 diacid = O=C(O)CCCCCCCCCCCCCCCCCCC(=O)*; C18 diacid = O=C(O)CCCCCCCCCCCCCCCCC(=O)*; γGlu = O=C(O)[C@H](CCC(=O)[*:2])N[*:1]; εLys = N[C@@H](CCCCN[*:1])C(=O)[*:2]; dtOrn = not defined here; Aib = CC(C)(N)C(=O)O

B1: Compound 88 (peptide)
peptide: YXEGTFTSDYSIXLEKQAQXAFIRHLINKXTRQRY
modifications: Aib at 2, 13, 20, 30; Lys29 epsilon-amino: C18DA-gGlu-gGlu-gGlu-gGlu-gGlu-gGlu-eLys; C-terminal amide
B2: Compound 128 (peptide)
peptide: YXEGTFTSDYSIXLEKQAQXAFVRALINKXTRQRY
modifications: Aib at 2, 13, 20, 30; Lys29 epsilon-amino: C18DA-gGlu-gGlu-gGlu-gGlu-gGlu-gGlu-eLys; C-terminal amide
B3: Compound 164 (peptide)
peptide: YXEGTFTSDYSIXLEKEAQXAFVRHLINKXTRQRY
modifications: Aib at 2, 13, 20, 30; Lys29 epsilon-amino: C18DA-gGlu-gGlu-gGlu-gGlu-gGlu-gGlu-eLys; C-terminal amide
B4: Compound 124 (peptide)
peptide: YXEGTFTSDYSIXLERQAQXAFVRHLINKXTRQRY
modifications: Aib at 2, 13, 20, 30; Lys29 epsilon-amino: C18DA-gGlu-gGlu-gGlu-gGlu-gGlu-gGlu-eLys; C-terminal amide
B5: Compound 101 (peptide)
peptide: YXEGTFTSDYSIXLEKQAQXAFVRHLINKXTRQRY
modifications: Aib at 2, 13, 20, 30; Lys29 epsilon-amino: C20DA-gGlu-gGlu-gGlu-gGlu-gGlu-gGlu-gGlu; C-terminal amide
B6: Compound 91 (peptide)
peptide: YXEGTFTSDYSIXLEKQRQXAFVRHLINKXTRQRY
modifications: Aib at 2, 13, 20, 30; Lys29 epsilon-amino: C18DA-gGlu-gGlu-gGlu-gGlu-gGlu-gGlu-eLys; C-terminal amide
B7: Compound 145 (peptide)
peptide: YXEGTFTSDYSIXLEKQAQXEFVRHLINKXTRQRY
modifications: Aib at 2, 13, 20, 30; Lys29 epsilon-amino: C18DA-gGlu-gGlu-gGlu-gGlu-gGlu-gGlu-eLys; C-terminal amide
B8: Compound 89 (peptide)
peptide: YXEGTFTSDYSIXLEEQAQXAFVRHLINKXTRQRY
modifications: Aib at 2, 20, 30; aMeL at 13; Lys29 epsilon-amino: C20DA-gGlu-gGlu-gGlu-gGlu-gGlu-gGlu-eLys; C-terminal amide
B9: Compound 90 (peptide)
peptide: YXEGTFTSDYSIXLEKQAQXAFVRHLINKXTRQXY
modifications: Aib at 2, 13, 20, 30; dOR at 34; Lys29 epsilon-amino: C18DA-gGlu-gGlu-gGlu-gGlu-gGlu-gGlu-eLys; C-terminal amide
B10: Compound 146 (peptide)
peptide: YXEGTFTSDYSIXLEKQAQXAFVRHLINKXTRQXY
modifications: Aib at 2, 13, 20, 30; bhArg at 34; Lys29 epsilon-amino: C18DA-gGlu-gGlu-gGlu-gGlu-gGlu-gGlu-eLys; C-terminal amide
B11: Compound 109 (peptide)
peptide: YXEGTFTSDYSIXLEKQAQXAFIRHLINKXTRQRY
modifications: Aib at 2, 13, 20, 30; Lys29 epsilon-amino: C20DA-gGlu-gGlu-gGlu-gGlu-gGlu-gGlu-eLys; C-terminal amide
B12: Compound 160 (peptide)
peptide: YXEGTFTSDYSIELEKQAQXAFVRHLINKXTRQRY
modifications: Aib at 2, 20, 30; Lys29 epsilon-amino: C18DA-gGlu-gGlu-gGlu-gGlu-gGlu-gGlu-eLys; C-terminal amide
B13: Compound 149 (peptide)
peptide: YXEGTFTSDYSIXLEKQAQXEFVRHLINKXTRQRY
modifications: Aib at 2, 13, 20, 30; Lys29 epsilon-amino: C20DA-gGlu-gGlu-gGlu-gGlu-gGlu-gGlu-eLys; C-terminal amide
B14: Compound 116 (peptide)
peptide: YXEGTFTSDYSIXLEKQAQXAFVRHLINKXTRQRY
modifications: Aib at 2, 13, 20, 30; NMeY at 35; Lys29 epsilon-amino: C18DA-gGlu-gGlu-gGlu-gGlu-gGlu-gGlu-eLys; C-terminal amide
B15: Compound 96 (peptide)
peptide: YXEGTFTSDYSIXLEKQAQXAFVRHLINKXTRQXY
modifications: Aib at 2, 13, 20, 30; dOR at 34; Lys29 epsilon-amino: C18DA-gGlu-gGlu-gGlu-gGlu-gGlu; C-terminal amide
B16: Compound 166 (peptide)
peptide: Y[Aib]EGTFTSDLSI[Aib]LEKQAQ[Aib]AFVRHLINK([γGlu-γGlu-εLys-γGlu-γGlu-γGlu-γGlu-C20 diacid])[Aib]TRQRY-NH2
B17: Compound 97 (peptide)
peptide: Y[Aib]EGTFTSDYSI[Aib]LEKQAQ[Aib]AFVRHLINK([dtOrn-γGlu-γGlu-γGlu-γGlu-γGlu-γGlu-C20 diacid])[Aib]TRQRY-NH2
modifications: reading uncertain
B18: Compound 100 (peptide)
peptide: Y[Aib]EGTFTSDYSI[Aib]LEKEAQ[Aib]EFVRHLINK([γGlu-γGlu-γGlu-γGlu-C18 diacid])[Aib]TRQRY-NH2
modifications: N-terminus assumed
SMILES: CC[C@H](C)[C@H](NC(=O)[C@H](CC(C)C)NC(=O)[C@H](Cc1c[nH]cn1)NC(=O)[C@H](CCCNC(=N)N)NC(=O)[C@@H](NC(=O)[C@H](Cc1ccccc1)NC(=O)[C@H](CCC(=O)O)NC(=O)C(C)(C)NC(=O)[C@H](CCC(N)=O)NC(=O)[C@H](C)NC(=O)[C@H](CCC(=O)O)NC(=O)[C@H](CCCCN)NC(=O)[C@H](CCC(=O)O)NC(=O)[C@H](CC(C)C)NC(=O)C(C)(C)NC(=O)[C@@H](NC(=O)[C@H](CO)NC(=O)[C@H](Cc1ccc(O)cc1)NC(=O)[C@H](CC(=O)O)NC(=O)[C@H](CO)NC(=O)[C@@H](NC(=O)[C@H](Cc1ccccc1)NC(=O)[C@@H](NC(=O)CNC(=O)[C@H](CCC(=O)O)NC(=O)C(C)(C)NC(=O)[C@@H](N)Cc1ccc(O)cc1)[C@@H](C)O)[C@@H](C)O)[C@@H](C)CC)C(C)C)C(=O)N[C@@H](CC(N)=O)C(=O)N[C@@H](CCCCNC(=O)CC[C@H](NC(=O)CC[C@H](NC(=O)CC[C@H](NC(=O)CC[C@H](NC(=O)CCCCCCCCCCCCCCCCC(=O)O)C(=O)O)C(=O)O)C(=O)O)C(=O)O)C(=O)NC(C)(C)C(=O)N[C@H](C(=O)N[C@@H](CCCNC(=N)N)C(=O)N[C@@H](CCC(N)=O)C(=O)N[C@@H](CCCNC(=N)N)C(=O)N[C@@H](Cc1ccc(O)cc1)C(N)=O)[C@@H](C)O

Tests used:
Assay in all cases: cell-based or functional assay
human GLP-1 receptor = human GLP-1 receptor (human, UniProt P43220 24-463)
human GIP receptor = target: T1, human GIP receptor (human, UniProt P48546 22-466)
T1 sequence (looked up): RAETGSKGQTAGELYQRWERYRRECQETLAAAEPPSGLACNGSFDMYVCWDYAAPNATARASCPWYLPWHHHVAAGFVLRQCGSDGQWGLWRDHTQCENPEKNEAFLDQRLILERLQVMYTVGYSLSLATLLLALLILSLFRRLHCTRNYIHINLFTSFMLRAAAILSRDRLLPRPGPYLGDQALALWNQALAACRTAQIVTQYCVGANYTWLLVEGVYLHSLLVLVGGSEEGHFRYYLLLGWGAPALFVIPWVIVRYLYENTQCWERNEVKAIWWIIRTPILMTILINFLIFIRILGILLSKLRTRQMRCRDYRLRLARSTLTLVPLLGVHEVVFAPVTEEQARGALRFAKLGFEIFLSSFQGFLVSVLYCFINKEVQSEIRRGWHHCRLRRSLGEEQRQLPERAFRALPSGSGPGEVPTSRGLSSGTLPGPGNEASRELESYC

[1] = target: T2, human neuropeptide Y2 receptor (human, UniProt P49146 1-381)
T2 sequence (looked up): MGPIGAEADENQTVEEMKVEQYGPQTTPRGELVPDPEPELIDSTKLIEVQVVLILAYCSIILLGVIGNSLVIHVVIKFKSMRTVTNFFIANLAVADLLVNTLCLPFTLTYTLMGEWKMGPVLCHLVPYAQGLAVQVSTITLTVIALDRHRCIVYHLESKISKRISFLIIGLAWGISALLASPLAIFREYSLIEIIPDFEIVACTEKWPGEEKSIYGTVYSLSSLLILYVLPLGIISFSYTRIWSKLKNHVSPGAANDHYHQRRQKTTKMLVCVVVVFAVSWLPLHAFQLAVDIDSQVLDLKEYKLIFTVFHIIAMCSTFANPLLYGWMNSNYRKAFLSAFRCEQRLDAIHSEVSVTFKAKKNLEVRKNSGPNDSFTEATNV

| Binder | EC50, CreLuc reporter, 0.5% hP (human GLP-1 receptor) [nM] | EC50, CreLuc reporter, 100% hP (human GLP-1 receptor) [nM] | EC50, CreLuc reporter, 0.5% hP (human GIP receptor) [nM] | EC50, CreLuc reporter, 100% hP (human GIP receptor) [nM] | EC50, CreLuc reporter, 100% hP [1] [nM] | EC50, CreLuc reporter, 0.5% hP [1] [nM] |
| --- | --- | --- | --- | --- | --- | --- |
| B1 | 0.2 | 1.8 | 0.1 | 1.7 | 30.9 |  |
| B2 | 0.7 | 4 | 0.2 | 5.7 |  |  |
| B3 | 0.6 |  | 0.4 |  |  |  |
| B4 | 0.5 |  | 0.1 | 4 |  |  |
| B5 |  | 20 | 1 |  |  |  |
| B6 |  | 13.7 | 0.8 | 14.4 | 45.2 | 9.7 |
| B7 | 0.5 | 1.8 |  |  | 94.2 |  |
| B8 | 0.2 | 1.7 |  | 0.9 |  |  |
| B9 | 2 |  |  | 0.6 |  |  |
| B10 | 1 |  |  |  | 89.8 | 51.5 |
| B11 | 0.8 |  | 0.3 |  |  |  |
| B12 | 7.1 | 27 |  |  | 28.5 | 15.5 |
| B13 |  | 3.3 |  |  | 166 |  |
| B14 | 2 |  |  | 3.4 |  |  |
| B15 | 0.9 | 1.7 | 0.3 | 1.7 | 125 | 23 |
| B16 | 8 |  | 0.6 |  |  |  |
| B17 | 3.8 | 16.8 |  | 12.7 | 135 | 11.7 |
| B18 | 0.2 |  | 0.5 |  |  |  |
